Assays:
[1] = molecular target: CNX-his antigen (Genscript) (human) (UniProt P27824); assay: ELISA with serial dilutions of the antibody on coated His-tagged human CNX
[2] = molecular target: CNX-mcherry fluorescent protein expressed in Huh7 cells; assay: immunofluorescence, Huh7 CNX-mcherry cells minus plain Huh7 cells, Alexa-coupled secondary
[3] = molecular target: Recombinant human CANX protein fused with the Fc region of human IgG1 at the C-terminus (HuCANX_hFc) (human) (UniProt P27824); assay: ELISA, IgG1 coated 2 ug/ml, biotinylated antigen titrated (EC50 is of the antigen), streptavidin-HRP; curve is flat, value lies beyond the range shown
[4] = molecular target: CNX-mcherry fluorescent protein expressed in Huh7 cells; assay: immunofluorescence, Huh7 CNX-mcherry cells minus plain Huh7 cells, anti-human Alexa 647

CNX-mcherry fluorescent protein expressed in Huh7 cells, sequence (P27824 21-592): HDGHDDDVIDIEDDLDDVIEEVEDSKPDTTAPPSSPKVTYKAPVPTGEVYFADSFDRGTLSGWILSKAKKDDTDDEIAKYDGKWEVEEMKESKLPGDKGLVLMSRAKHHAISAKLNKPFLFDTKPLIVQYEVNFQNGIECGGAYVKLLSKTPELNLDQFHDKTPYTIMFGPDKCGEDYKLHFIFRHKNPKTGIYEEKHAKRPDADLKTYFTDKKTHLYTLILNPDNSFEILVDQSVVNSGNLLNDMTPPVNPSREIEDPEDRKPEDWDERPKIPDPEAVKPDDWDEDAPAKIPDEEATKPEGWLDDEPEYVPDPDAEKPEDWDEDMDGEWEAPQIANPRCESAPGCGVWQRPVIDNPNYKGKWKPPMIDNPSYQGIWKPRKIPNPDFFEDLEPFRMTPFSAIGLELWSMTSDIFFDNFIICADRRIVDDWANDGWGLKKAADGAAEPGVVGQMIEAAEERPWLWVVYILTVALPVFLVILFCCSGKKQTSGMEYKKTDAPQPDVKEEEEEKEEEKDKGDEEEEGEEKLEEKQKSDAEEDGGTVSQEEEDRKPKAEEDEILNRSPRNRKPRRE
CNX-his antigen (Genscript) (human), sequence (P27824 21-481 limits assumed): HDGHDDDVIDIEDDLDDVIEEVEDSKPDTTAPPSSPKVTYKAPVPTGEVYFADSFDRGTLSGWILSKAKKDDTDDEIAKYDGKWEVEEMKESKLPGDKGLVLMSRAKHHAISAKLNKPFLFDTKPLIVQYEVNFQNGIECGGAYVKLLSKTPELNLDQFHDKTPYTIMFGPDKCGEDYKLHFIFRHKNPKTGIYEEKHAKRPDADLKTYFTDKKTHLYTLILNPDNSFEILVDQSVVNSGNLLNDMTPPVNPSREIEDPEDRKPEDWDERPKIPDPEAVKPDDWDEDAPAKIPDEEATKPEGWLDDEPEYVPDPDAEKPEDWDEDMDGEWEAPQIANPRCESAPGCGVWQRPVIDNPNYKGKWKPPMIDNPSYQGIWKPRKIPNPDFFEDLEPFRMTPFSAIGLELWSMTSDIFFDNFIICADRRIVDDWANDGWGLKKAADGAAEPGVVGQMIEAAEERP
Recombinant human CANX protein fused with the Fc region of human IgG1 at the C-terminus (HuCANX_hFc) (human), sequence (P27824 21-481 limits assumed): as above

In the case of CNX ab10286 (Abcam) (antibody), the EC50 (read off the curve) [1] is reported as 0.2 µg/mL.
Substance CNX antibody ab22595 (Abcam) has an Intensity (CNX+ cells - CNX -ve) [2] of 3630.
Neg Control (antibody) showed an EC50 [3] of 147 nM.
With negative control human IgG (antibody) the Intensity (CNX+ cells - CNX -ve) [4] was 107.

— patent US20260250378A1
